± gives the uncertainty stated by the source.
Test: protein stability index of a GFP-peptide fusion (yeast GPS) (PSI 1-4); higher = more stable; sorted into four equal gates, so the index is relative within each strain
Summary of the method: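 Tiled 17-residue yeast protein peptides were fused downstream of GFP in a plasmid that also expresses Cherry, and the pooled library was carried in yeast. Mid-log cultures in leucine-free medium were sorted into four equal gates by GFP/Cherry fluorescence ratio, and plasmids from each gate were PCR-amplified and Illumina-sequenced, with reads assigned to strains by barcodes. The protein stability index for each peptide was each gate's read frequency times its gate number, summed.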

| Sequence | protein stability index (pdr5∆) | protein stability index (san1∆) | protein stability index (ubr1∆) | protein stability index (doa10∆) |
| --- | --- | --- | --- | --- |
| DHRKRKKSKIQLLDIAE [LIN1] | 2.8 ± 0.23 | 3.19 ± 0.17 | 3.32 ± 0.18 |  |
| KNVENTKNLSILTSKVN [DSN1] | 2.36 ± 0.049 | 2.53 ± 0.077 | 2.51 ± 0.036 | 2.37 ± 0.061 |
| NNRISNANEISANTNNT [SWP82] | 2.25 ± 0.049 | 2.54 ± 0.066 | 2.66 ± 0.048 | 2.14 ± 0.05 |
| KIELIKNNLLIPDLSIQ [RPN12] | 2.23 ± 0.042 | 2.66 ± 0.046 | 2.06 ± 0.036 | 2.75 ± 0.055 |
| FLLHNSEIIDTNTSKQF [SRB8] | 3.06 ± 0.069 | 2.85 ± 0.055 | 2.81 ± 0.044 | 2.83 ± 0.086 |
| AFKATNQTNINSLAVRG [SCL1] | 3.21 ± 0.085 |  | 2.84 ± 0.11 | 3.1 ± 0.11 |
| VKDKEEDHIFFKYIYEL [YDL116W/NUP84] | 1.09 ± 0.093 | 1.16 ± 0.16 | 1.06 ± 0.076 | 1.34 ± 0.07 |
| PQIAQLPLATQQQVLNK [SNF5] | 2.3 ± 0.075 | 2 ± 0.13 | 2.17 ± 0.068 | 1.94 ± 0.074 |
| SPHGLINLNVDDDILII [SRB4] | 3.2 ± 0.075 | 3.11 ± 0.054 | 3.05 ± 0.045 | 3.1 ± 0.074 |
| DFSIRKTCAKSVIQLCG [ECM29] | 1.91 ± 0.13 | 2.05 ± 0.22 |  | 1.84 ± 0.12 |
| DPHSASLINSHLKILAS [RPC82] | 1.38 ± 0.12 | 1.38 ± 0.19 | 1.23 ± 0.059 | 2.15 ± 0.22 |
| FELVHHFFQIDGFNKTF [YML103C/NUP188] | 2.24 ± 0.091 | 2.42 ± 0.074 | 2.36 ± 0.065 | 2.03 ± 0.075 |
| INSENDYSRKQLGYGKF [NUT1] |  |  | 3.17 ± 0.22 | 3.46 ± 0.26 |
| LEERFDPKSPTKRSIAI [YMR129W/POM152] | 3.14 ± 0.055 | 2.9 ± 0.037 | 3.02 ± 0.034 | 2.94 ± 0.055 |
| DEVYVQNSKFLKVNVTL [YJL039C/NUP192] | 2.78 ± 0.054 | 2.76 ± 0.06 | 2.45 ± 0.039 | 2.68 ± 0.064 |
| GYLDDSEILIISSLMFD [IRR1] | 2.91 ± 0.06 | 2.89 ± 0.07 | 2.75 ± 0.046 | 2.79 ± 0.071 |
| NLYTPKAEMPPEHLRKI [PRP8] | 2.38 ± 0.062 | 2.78 ± 0.073 | 2.12 ± 0.053 | 2.53 ± 0.072 |
| TNNDSNNKNNSITTGND [MED2] | 2.64 ± 0.057 | 2.7 ± 0.081 | 1.87 ± 0.043 | 2.69 ± 0.1 |
| LISLKLLTFEVTQNVLG [SRB8] | 1.46 ± 0.072 | 1.28 ± 0.25 | 1.69 ± 0.084 | 1.73 ± 0.078 |
| VNQDSTYKYFEVILVDP [RPL15A] | 3.43 ± 0.082 | 3.12 ± 0.048 | 3.19 ± 0.057 | 3.21 ± 0.068 |

| Sequence | protein stability index (pdr5∆) | protein stability index (san1∆) | protein stability index (ubr1∆) | protein stability index (doa10∆) |
| --- | --- | --- | --- | --- |
| HELSSSHTSLVKIGKFI [SRB8] | 2.61 ± 0.033 | 1.84 ± 0.079 | 1.63 ± 0.052 | 1.8 ± 0.042 |
| LKTNFETEWNLQTLAAD [RPB11] | 2.91 ± 0.11 | 2.53 ± 0.079 | 2.67 ± 0.1 | 2.79 ± 0.13 |
| TFVHVTDLSGKETIARV [RPS14A] | 2.82 ± 0.073 | 2.84 ± 0.05 | 2.4 ± 0.055 | 2.89 ± 0.069 |
| MLMPKEDRNKIHQYLFQ [RPS10A] | 2.58 ± 0.057 | 2.49 ± 0.079 | 2.71 ± 0.047 | 2.27 ± 0.057 |
| VEVLLVNYNSDMIKCFL [NUT1] | 1.74 ± 0.077 | 1.51 ± 0.17 | 2.02 ± 0.13 | 1.58 ± 0.1 |
| LSRLQKSGRINGFHGRL [SMC4] | 3.57 ± 0.15 | 3.29 ± 0.081 | 3.19 ± 0.064 | 3.26 ± 0.15 |
| EIPSEDQNEFLLERTRE [FAS2] | 3.3 ± 0.12 | 3.35 ± 0.081 | 3.22 ± 0.079 | 3.33 ± 0.094 |
| YLLPDDFHFSTDRITRL [BRN1] | 2.5 ± 0.056 | 2.6 ± 0.063 | 2.79 ± 0.048 | 2.43 ± 0.056 |
| AHEISQGVYGAVYETLI [BRR2] | 3.11 ± 0.07 | 3.16 ± 0.061 | 3.37 ± 0.082 | 3.33 ± 0.082 |
| SVNPSNKPIKRMLSSIL [SWP82] | 2.99 ± 0.044 | 2.93 ± 0.045 | 2.99 ± 0.037 | 2.95 ± 0.065 |
| KLALAENDTNMNETLNL [SMC4] | 3.15 ± 0.077 | 3.04 ± 0.1 | 2.85 ± 0.089 | 3.15 ± 0.13 |
| PPDIHPNLGPQLWLNSS [GRR1] | 3.36 ± 0.089 | 3.21 ± 0.066 | 3.14 ± 0.067 | 3.28 ± 0.089 |
| MTMNGIPVKLLNEAQGH [SMD3] | 3.39 ± 0.16 | 2.76 ± 0.091 | 3.1 ± 0.11 | 3.2 ± 0.12 |
| IQNDEEYDTPALFFDPS [PRP8] | 3.05 ± 0.056 | 2.73 ± 0.085 | 2.86 ± 0.071 | 2.76 ± 0.073 |
| EDDDNEQHEEKAAEGEE [QCR6] | 2.95 ± 0.12 | 2.95 ± 0.24 | 3.2 ± 0.072 | 3.06 ± 0.083 |
| AIATTVIAHLTVEALDF [RET1] | 2.32 ± 0.083 | 2.71 ± 0.076 | 2.37 ± 0.053 | 2.54 ± 0.12 |
| TTLVTRREELQQRIREI [SMC3] |  |  |  | 3.06 ± 0.2 |
| GISNGSESKDSDKPSLP [YLR335W/NUP2] | 3.19 ± 0.12 |  | 2.79 ± 0.13 | 3.29 ± 0.13 |
| DVKCWSKFIEKFQDIVS [MED1] | 2.62 ± 0.12 | 2.09 ± 0.14 | 1.89 ± 0.1 | 1.83 ± 0.12 |

Reference: the supplement of paper PMC9732359
